Assay results reported in the nanobody polyreactivity screen of Harvey et al. (2022).

Assay: yeast display, Sf9 membrane polyspecificity reagent, FACS + sequencing; frameworks hold sequencing errors
In short: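 Sorting gates, low and high (top ~1%), were placed on anti-HA fluorescence to track expression and on streptavidin fluorescence to track reagent binding. A clone's polyreactivity label is taken from the gate it came out of. The reagent was 10% biotinylated, detergent-solubilized Sf9 membrane, applied for 1 hour at 4 °C to galactose-induced yeast display cells.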

QVQLVESGGGLVQAGGSLRLSCAASGSTFYKYAMGRYREAPRKERELVASISRSGGSTSYADSVTGRFTISRDNAKNTVYLQMNSLTPEDTAVYYCAATWRQHPGSMGYWGQGTQVTVSS
polyreactivity (PSR sort gate): high polyreactivity

QVQLVESGGGLVQAGGSLRLSCAASGFTFRTYAMGWSRQAPGKERELVAAITVSGGTYYADSVKGRFTISRDNAKNTVYLQMNSLKPEDTAVYYCAAGYWNDFDWGQGTQVTVSS
polyreactivity (PSR sort gate): low polyreactivity

QVQLEESGGGLVQAGGSLRLSCAASGIIFSGYAMGWYRQAPGKERELVASIRSGSNTYYADSVKGRFTISRDNAKNTVYLQMISLKPEDTAVYYCAARVVPATFRFIRYPHPYYYWGQGTQVTVSS
polyreactivity (PSR sort gate): low polyreactivity

QVHLVESGGGLVQAGGSLRLSCAASGITFDEYTMGWYRQAPGKERELVAAIDSDGSTTYADSVKGRFTISRDNAKNTVYLQMNSLKPEDSAVYYCNAEHGDFSWHYLLYDYDYWGPGTQVTVSS
polyreactivity (PSR sort gate): low polyreactivity

QVQLVESGGGLVQAGGSLRLSCAASGDIFDAYAMGWYRQAPGKERELVAAISRSGGSTYYADSVKGRFTISRDNAKNTVYLQMNSLKPEDTAVYYCATRFSRRYVRYDYWGHGTQVTVSS
polyreactivity (PSR sort gate): high polyreactivity

QVQLVESGGGLVQAGGSLRLNCAASGSILYLNAMGWYRQAPGKERELLAAITWSGGSTSYADSVKGRFTISRDYAKNTVSLQMNSLKPEDTAVYYCSAVRRGYGGVYYAGGYWGQGTQVTVSW
polyreactivity (PSR sort gate): low polyreactivity

QVQLVESGGGLVQAGGSLRLSCAASGIIYKYAMGWYRQAPGKERELVATITWSDGSTYYADSVKGRFTISRDNAKNTVYLQMNSLKPDDTAVYYCAADDYYGYDYWGQGTQVTVSS
polyreactivity (PSR sort gate): low polyreactivity

QVQLVESGGGLVQAGGSLRLSCAASGFIFGDNAMGWYRQAPGKERELVAAINSSGGRTYYADSVKGRFTISRDNAKNTVYLQMNSLKPEDTAVYYCNAAYGIASYGSSYYWGQGTQVTVSS
polyreactivity (PSR sort gate): high polyreactivity

QVQLVESGGGLVQAGGSLRLSCAASGSIFNINAMGWYRQAPGKERELVAAITTSGGRTYYADSVKGRFTISRDNAKNTVYLQMNSLKPEVTAVYYCATSHYGSTGNYWGQGTQVTVSS
polyreactivity (PSR sort gate): low polyreactivity

QVQLVESGGGLVQAGGSLRLSCAASGSIFYRNAMGWYRQAPGKERELVAAISSDGSTNYADSVKGRFTISRDNAMNTVDLQMNSLKPEDTAVYYCAAPWTQILDYWGQGTQVTVSS
polyreactivity (PSR sort gate): low polyreactivity

QVQLVESGGGLVQAGGSLRLSCAASGFTFYTNAMGWYRQAPGKERELVAAITKSDGSTYYADSVKGRFTISRDNAKNTVYLQMNSLKPEDTAVYYCATERRYPYYGGIVIYDYWGQGTQVTVSS
polyreactivity (PSR sort gate): low polyreactivity

QVQLVESGGGLVQAGGSLRLSCAASGSIFNIYAMGLYRQAPGKERELVATITGIADSTYYADSVKGRFTISRDNAKNTVYLQMNSLKPEDTAVYYCAADKYVAEYDYWGQGTQVTVSS
polyreactivity (PSR sort gate): low polyreactivity

QVQLVESGGGLVQAGGSLRLSCAASGSIFIYNAMGWYRQAPGKERELVAAISSSGGSTYYADSVKGRFTISRDNAKNTVYLQMNSLNPEDTAVSYCAARTYYVRGLGGRPGMDYWGQGTQVTVSS
polyreactivity (PSR sort gate): low polyreactivity

QVQLVESGGGLVQAGGSLRLSCAASGFIFRYYAMGWYRQAPGKERELVAAISYSGGYTYYADSVKGRFTISRDNAKNTVYLQMNSLKPEDTAVYYCAAVLRTRDHPQPNYEYWGQGTQVTVSS
polyreactivity (PSR sort gate): high polyreactivity

QVQLVESGGGLVQAGGSLRLSCAASGSTFSDNAMGWYRQAPGKERELVAAITSGGSTYYADSVKGRFTISRDNAKNTVYLQMNSLKPEDTAVYYCATGGVTFGSVVRGVDGDYWGQGTQVTVSS
polyreactivity (PSR sort gate): low polyreactivity

QVQLVESGGGLVQAGGSLRLSCAASGFTFGWNAMGWYRQAPGKERELVAAISWSGGSTYYADSVKGRFTISRDNAKKTVYLQMNSLKPEDTAVYYCAAYPAYGGDYWGQGTQVTVSS
polyreactivity (PSR sort gate): high polyreactivity

QVQLVESGGGLVQAGGSLRLSCAASGSIFWWNAMGWYRQAPGKERELVAGITKIGSSTYYADSVKGRFTISRDNAKNTVYLQMNSLKPEDTAVYYCNAYGPNIYSSRYDYWGQGTQVTVSS
polyreactivity (PSR sort gate): low polyreactivity

QVQLVESGGGLVQAGGSLRLSCAASGRTFPYYAMGWYRQAPGKERELVAAIRGTAGNTYYADSVKGRFTISRDNAKNTVYLQMNSLKPEDTAVYYCAKGRPYWSPLTGYNYWGQGTQVTVSS
polyreactivity (PSR sort gate): low polyreactivity

QVQLVESGGGLVQAGGSLRLSCAASGRLFKRYNMGWYRQGPGKDRELVAAIRSGGSTNYADSVKGRFTISRDNAKNTVYLPMNSLKPEDTAVYYCAARSTAYRGGSYAYDYWGQGTQVTVSS
polyreactivity (PSR sort gate): high polyreactivity

QVQLVESGGGLVQAGGSLRLSCAASGSTFVVNAMGWYRQAPGKEREFVAAITWNGGSTYADSVKGRFTISRDNAKNTVYLQMNSLKPEDTAVYYCSADLSYWDDFDYWGQGTQVTVSS
polyreactivity (PSR sort gate): low polyreactivity

QVQLVESGRGLVQAGGSLRLRCAASGYTFTRYAMGWYRQAPRKESELVAAISTSGGRTYYSDSEKGRFTISRDNAKNTVYLQMNRLKPEDTAVYSCAAPIRDGRYDYWGQGTQVTVSS
polyreactivity (PSR sort gate): high polyreactivity

QVQLVESGGGLVQAGGSLRLSCAASGLTFYEDVLGWYRQAPGKERELVAAISYSGGRTYYADSVQGRFTISRDNAKNTVYLQMNSLKPEDTAVYYSAAQSRYAGKFYYWGQGTQVTVSS
polyreactivity (PSR sort gate): high polyreactivity

QVQLVESGGGLVQAGSSLRLSCAASGSTFLYYAMGWYRQAPGKEREMVAAITSSGGRTYYADSVKGRFTNSRDNAKNTDYLQMNSLKPEDTAVYYCARGWPRREQSEYDYWGQGTQVTVSS
polyreactivity (PSR sort gate): high polyreactivity

QVQLVESGGGLVQAGGSLRLSCAASGRTFDYNAMGWYRQAPGKERELFAAISQSGGRTYYADSVKGRFTISRDNAKNTVYLQMYSLKPVDTAVYYCAAEAYGNRDYWGQGTQVTVSS
polyreactivity (PSR sort gate): low polyreactivity

QVQLVESGAGLVQAGGSLRLSCAASGYIFYKNAMGWYRQAPGKERELVAAISTRGGSTYYADSVKGRFTISRDNAQNTVYLHMNSLKPEDTAVNYCAASQNRRDWGQGTQVTVSS
polyreactivity (PSR sort gate): high polyreactivity

QVQLVESGGGLVQAGGSLRLSSAASGFIFPVYTMGWYRQAPGTERELLAAITQIGGSTHYADSVKGRFTISRDNAKNTVYLQMNSLKPVDTAVYYFNAVPSYGTEYDYWGQGTQVTVSS
polyreactivity (PSR sort gate): low polyreactivity

QVQLVESGGGLVQAGCSLRLSCAASGSTFYRYAMGWYRQAPGKERELVAAITSGTGTYYADSVKGRFTISRDNAKNTVYLQMNSLKPEDTAVYYCNARRYLRGYWGQGTQVTVSS
polyreactivity (PSR sort gate): low polyreactivity

QVHLQESGGGLVQAGGSLRLSCAASGTITVLYKMGWFRQAPGKEREFVASINYGTSTYYADSVKGRFTVSRDSAKNTVYLQMNSLKPEDTAVYYCAAAYRWQDVYRYWGQGTQVTVSS
polyreactivity (PSR sort gate): low polyreactivity

QVQLVESGGGLVQAGGSLRLSCAASGFIFRYYAMGRYRQAPGKERELVAAISYSGGSTYYADSVKGRFTFSRDNAKNTVYLQINSMKPEDTAVYYCAKYTTSVYKQSLQQGYDYWGQGTQVSVSS
polyreactivity (PSR sort gate): high polyreactivity

QVQLVESGGGIVQAGGSLRLSCAASGFIIGYNAKGWYRQAPGKETELVAAITSRGVRTYYADCVKWRFTISRDNAKNTVYLQMNSLKPEDTAVYYCAKASRGYRSPYGSIGYYYWGQGTQVTVSS
polyreactivity (PSR sort gate): high polyreactivity

QVQLVESGGGLVQAGGSLRLSCAASGRIFAFYAMGWYRPAPGKEREFVAAITYSGGNTNYADSVKGRFTISRDNAKNTVYIEMNSLKPEDTPVYYCAADLVYGVYYQEDYWGQGTQVTVSS
polyreactivity (PSR sort gate): low polyreactivity

QVQLVESGGGLVQAGGSLRISCAASGSIFRQYAMGLYRQAPGKEWELVAAITYSGGNTYYADSVKGRFTISRDNAKNTVYLQMNSLKPEDTAVYYCAADYGSRSWEYNYWGQGTQVTVSS
polyreactivity (PSR sort gate): low polyreactivity

QVQLVESGGGLVQAGGSLRLSCAASGRIFKYYAMGWYRQAPGKERELVAAITWSGGNTYYADSVKGRFTISRDNAKNTVYLQMNSLKPEDTAVYYCAREVYYPIRQYNYWGQGTQVTVSS
polyreactivity (PSR sort gate): high polyreactivity

QVQLVESGGGLVQAGGSLRLSCAASGSIFGFNAMGWYRQAPGKERELVAAINGGGTTYYADSVKGRFTISRDNAKNTVYLQMNSLIPEDTAVYYCAATPNGYYYLGYDYWGQGTQVTVSS
polyreactivity (PSR sort gate): low polyreactivity

QVQLVESGGGLVQAGGSLRLSCASSGLTSYSAMGWYRQAPGKERELGAAIDGSDGNTYYADSVKGRFTISRDNAMNTVYLQMKSLKPEDTAVYYCNAETVRYWWSWENDYWGQGTQVTVSS
polyreactivity (PSR sort gate): high polyreactivity

QVQLVDSGGGLVQAGGSLRLSCDASGSTFRGYAMGWYRKAPGKERELVAAISSRGARTHYADSLKGRFTISRDNAKNNVYLQMNSLKPEDTAVYYCNKRQVFFSTGEYEFDYWGQGTQVTVSS
polyreactivity (PSR sort gate): low polyreactivity

QVQLVESGGGLVQAGGSLRLSCAASGRTFYRYAMGWYRQAPGKERELVARIRSGGSTNYADSVKGRFTISRDNAKNTVYLQMNSLKPEDTAVYYCAVDDAYPDRYDYWGQGTQVTVSS
polyreactivity (PSR sort gate): high polyreactivity

QVQLVESGGGLVQAGGSLRLICAASGSTFKRYAMGWYRQAPGKERELVAAISTRGSTYYADSVKGRFTISRDNAKNTVYLQMNSLKPEDTAVYYCNARQALVWKWSWYSPGYDYWGQGTQVTVSS
polyreactivity (PSR sort gate): low polyreactivity

QVQLVESWGGLVQAGGSLRISCAASGRTFVRNALGWYRHAPGKEREMVAGITRSGGSTYYADSVKGRFTISRDNAKNTVYLQMNSLKPEDTAVYYCATQYRYYNHFVTPFTRYGYWGQGTQLTVSS
polyreactivity (PSR sort gate): high polyreactivity

QVQLVESGGGLVQAGGSLRLSCAASGSTFAYYAMGWYRQAPGKERELVAAISSGGSTYYADSVKGRFTISRDNAKNTVYLQMNSLKPEDTAVYYCNKLWVGKFKRYEFGYWGQGTQVTVSS
polyreactivity (PSR sort gate): low polyreactivity

QVQLVESGGGLVQAGGSLRLSCAASGFTFPANDMGWYIQAPGKERELVATITWSGGNTYYADSVKGRFTISRDNAKNTVYLQMNSLKPEDTAVYYCAKDYDPYHEQQSSEHDDYWGQGTQVTVSS
polyreactivity (PSR sort gate): low polyreactivity

QVQLVESGGGLVQAGGSLRLSCAASGFIFDYYAMGWYRQAPGKERELVAAITSRGGSTYYADSVKGRFTISRDNAKNTVYLQMNSLKPEDTAVYYCAARRRSAEYNYWGQGTQVTVSS
polyreactivity (PSR sort gate): high polyreactivity

QVQLVESGGGLVQAGGSLRLSCAASGRTLVGYAMGWYIQAPGKERELVAAISSRGGGTYYADSVKGRFTISRDNAKNTVYLQMNSLKQEDTAVYYCEVSGASYSWGQGTQVTVSS
polyreactivity (PSR sort gate): high polyreactivity
